These results are taken from US20250250355A1.

The assay addresses human SIRPα-isoform 2-his protein (human). The assay can be described thus: indirect ELISA on coated human SIRPα-isoform 2-his, OD(450-630); negative control, curve not visible in the scan. (In general: An ELISA detects its analyte on a solid surface through an enzyme-linked reagent.)

human SIRPα-isoform 2-his protein (human), sequence (chain, as listed by the source limits assumed): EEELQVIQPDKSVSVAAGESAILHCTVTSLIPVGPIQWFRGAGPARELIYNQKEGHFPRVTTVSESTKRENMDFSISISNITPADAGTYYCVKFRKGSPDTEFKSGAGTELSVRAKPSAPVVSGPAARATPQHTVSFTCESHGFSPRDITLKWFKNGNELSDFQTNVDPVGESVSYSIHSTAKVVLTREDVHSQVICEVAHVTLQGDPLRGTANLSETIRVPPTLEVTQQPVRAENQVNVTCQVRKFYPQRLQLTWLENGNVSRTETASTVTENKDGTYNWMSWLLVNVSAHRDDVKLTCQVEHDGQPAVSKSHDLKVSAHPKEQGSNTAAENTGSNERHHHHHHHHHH

The EC50 is the concentration that produces a half-maximal response. Low values mean higher potency in that assay, high ones lower potency in that assay. In the case of hIgG (antibody), the EC50 stood at 18.8 nM.
